Source: publication PMC5651801

Target: 4-HIL dehydrogenase (HILDH) from Bacillus thuringiensis 2e2, wild type (Bacillus thuringiensis 2e2)
Assay: crystal structure; HILDH with 10 mM NADH, sitting-drop vapor diffusion at 20 °C, 30% PEG 400, 0.1 M acetate pH 4.5, 0.2 M calcium acetate; 2.20 Å

A stoichiometry N of 4 was found for “4-HIL dehydrogenase (HILDH) from Bacillus thuringiensis 2e2, wild type (enzyme)” in this work.
